Experimental data taken from the nanobody polyreactivity screen of Harvey et al. (2022).

Assay: yeast display, Sf9 membrane polyspecificity reagent, FACS + sequencing; frameworks hold sequencing errors
Summary of the method: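 Nanobodies came from a synthetic yeast display library in Saccharomyces cerevisiae BJ5465, induced with galactose for 36–48 hours and stained for 1 hour at 4 °C with 10% biotinylated, detergent-solubilized Sf9 membrane reagent. Cells were enriched on streptavidin microbeads and then FACS-sorted, with low and high (top ~1%) gates set on anti-HA fluorescence for expression and streptavidin fluorescence for reagent binding. Each polyreactivity label reflects the gate a clone came from. Genes were amplified by colony PCR, sequenced by MiSeq 2 × 250 and filtered by CDR length.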

Row | Sequence | polyreactivity (PSR sort gate)
1 | QVQLVESGGGLVQAGGSLRLSCAASGRILLSYAMGWYRQAPGKERELVAAISRSGVSTYYADSVKGRFTISRDNAKNTVYLQMNSLKPEDTAVYYCAAVRSSPGKSWDYNYWGQGTQVTVSS | high polyreactivity
2 | QVQLVESGGGLVQAGGSLRLSCAASGRTFYPYVMGWYRQAPGKEREFVAAISGTGGSTYYADSVKGRFTISRDNAKNTVYLQMNSLKPEDTAVYYCNRRIPYTSYSYGYWGQGTQVTVSS | high polyreactivity
3 | QVQLVESGGGLFQAGGSLRLSCAASGSTFAVYAMGWYRQAPGKERELVAVISWSDGRTYYADSVKGRFTISRDNAKNTVYLQMNSLKPEDTAVYYCNARLDTFVPRYGYWGHGTQVTVSS | high polyreactivity
4 | QVQLVESGGGLVQAGGSLRLSCAASGNTFGRYAMGWSRQAPGKERELVASIRGSSVRTFYADSVKGRFTISRDNAKNTVYLQMNSLKPEDTAVYYCAKRGYAYPSSYDSWGQGTQVTVSS | high polyreactivity
5 | QVQLVESGGGLVQAGGSLRLSCAASGSTFASNAMGWYRQAPGKERELVATINGDGSTNYADSVKGRFTISRDNAKNTVYLQMNSLKPEDTAVYYCNARYDYYGFWYQPYTLEVDYWGQGTQVTVSS | low polyreactivity
6 | QVQLVESGGGLAQAGGSLRLSCAASGNILRINGMGWYRQAPGKERELVASITRSGSTYYADSVKGRFTISRDNAKNTVYLQMNSLKPEDTAVYYCAADSRRYGVRFDYWGQGTQVTVSS | low polyreactivity
7 | QVQLVESGGGLVQAGGSLRLSCAASGLIFLYYAMGWYRQAPGKERELVAAISSSGSTYYADSGKGRFTISRDNAKNTVYLQMNSLKPEDTAVYYCAAAGYLYPYRYYYWGQGTQVTVSS | high polyreactivity
8 | QVQLVESGGGLVQAGGSLRLRSAASGSIYNQNAMGWYRQAHGNRELVAAITNGVSTDYADSVKGRFTISRDNAKNTVYLKLNSLKPEDTAVYYCNAGNYQYPSFEYDYWGLGTQVTVSS | low polyreactivity
9 | QVQLVESGGGLVQAGGSLRLICAASGFIFNSNAMGWYRQAPGKERELVAAISGRGGSTYYADSVKGRVTISRDNAKNTVYLQMNSLKPEDTAVYYCAAKLRPRYYVSGYDYWGQGTQVTVSS | high polyreactivity
10 | QVQLVESGGGLVQAGGSLRLSCAASGSTFIGFAMGWYRQAPGKERELVAAITSDGRTNYADSVKGRFTISRDNAKNTVYLQMNSLKPEDTAVYYCAAQILGTFYEYDYWGQGTQVTVSS | low polyreactivity
11 | QVQLVESGGGLVQAGGSLRLSCAASGSIFSSNAMGWYRQAPGKERELVAAIDYSGGRTYYADSVKGRFTISRDNAKNTVYLQMNSLKPEDTAVYYCAKLIPVHSRYDYWGQGTQVTVSS | low polyreactivity
12 | QVQLVESGGGLVQAGGSLRLSCAASGLTFYTYAMGWYRQAPGKERELVAAISGGGRTHYADSVKGRFTISRDNAKNTVYLQMNSLKPEDTAVYYCAKDKGFLVRYDDLHDYDYWGQGTQVTVSS | low polyreactivity
13 | QVQLVESGGGLVQAGGSLRLSCAASGRTFGYYAMGWYRPAPGKERELVAAITSSSSTNYADSVKGRFTISRDNAKNTVYLQMNSLKPEDTAVYYCAAYGYYRSGYRALEGYWGQGTQVTVSS | high polyreactivity
14 | QVQLVESGGGLVQAGGSLRLSCAASGGIFRLYGMGWYRQAPGKERELVAAIRQSGGRTYYADSVKGRFTISRDNAKNTVYLQMNSLKPEDTAVYYCAADLLYRSSGTVRSDYSRYDYWGQGTQVTVSS | low polyreactivity
15 | QVQLVESGGGLVQAGGSLRFSCAASGRIFVNYAMGWYRQAPGKEREFVAAITSSGGSTYYADSVKGRFTISRDNAKNTVYLQMNSLKPEDTAVYYCAARGSLGGWGLRYYWGQGTQVTVSS | high polyreactivity
16 | QVQLVESGGGFVQAGGSLRLSCAASGFIFYQYAMGWYRQAPGKERELVAAISWGGGSTYYADSVKGRFTISRDNAKNTVYLQMNSLKQEDTAVYYCNTDSAPYYWLSDNYDSCGQGTQVTVSS | low polyreactivity
17 | QVQLVESGGGLVQAGGSLRLSCAASGRTFGSYAMGWYRQAPGKEREFVASITGATTNYADSVKGRFTISRDNAKNTVYLQMNSLKQEDTAVYYCATDVGFGRKQRPHRPGYGYWGQGTQVTVSS | low polyreactivity
18 | QVQLVESGGGLVQAGGSLRLTCAASGRTFGVNAMGWYRPAPGKERQLVAAITGGGSTYYADSVKGRFTISRDNAKNTVYLQMNSLKPDDTAVYYCNADRRRRSGGFAGWHFERNDYWGQGTQVTVSS | low polyreactivity
19 | QVQLEESGGGLVQAGGSLRLSCAASGITFSRYAMGWYRQATGKERELVARISSSGGSTNYADSVKGRFTISRDNAKNTVYLQMNSLKPEDSAVYYCAVATRGKVARRVTFDYWGQGTQVTVSS | high polyreactivity
20 | QVQLVESGGALVQAGGSLRLSCAASGSIFYTNAMGWYRQAPGKERELVAAIRWSGGRTYYADSVKGRFTISRDNAKNTVYLQMNSLKPEDTAVYYCNKVPRTPIPYKYGDWGQGTHVTVSS | high polyreactivity
21 | QVQLVESGGGLVQAGGSLRLSCAASGLTFTSYPMVWYRQAPGKERELVAAIDWSGGRTYYADSVKGRFTISRDNAKNTVYLQMNSLKPEDTAVYYCAAYSRNRALRFNYWGQGTQVTVSS | high polyreactivity
22 | QVQLLETVGGLVQAGGSLRLSCASSGFTFGYYTMGWYRQAPGKERELVAAISSSGGRTYYADSVKGRFTISRDIAKNTVYLQMISLKPEDTALYYCNVYYISTDLYYWGQGTQVTVSS | high polyreactivity

Row | Sequence | polyreactivity (PSR sort gate)
23 | QVQLVESGGCLVQAGGSLRLSCAASGSSFTSNSMGWSRHAPGKERELVAAISSCGGSTYYADSVKGRFTISRDNATQTVYIQMNSLKPEDTAVYYCAADVHWPYRYDYWGQGTQVTVSS | low polyreactivity
24 | QVQLVESGGGLVQAGGSLRLSCAASGRIFVNYAMGWYRQAPGKEREFVAGIRVNGGSTYYADSVKGRFTISRDNAKNTVYLQMNSLKPEDTAVYYCAKAYPGTYREYDYWGQGTQVTVSS | high polyreactivity
25 | QVQLEESGGGLVQAGGSHRLSCAASGITFSLYAMGWYRQAPGKERELVATIDSGGSTNYADSVKGRFTISRDNAKNTVYLQMNSLIPEDTAVYYCAADGVWYYYDMDYWGQGTQVTVSS | low polyreactivity
26 | QVQLVESGGGLVQAGGSLRLSCAASGLTFAKYAMGWYRQEPGKEREFVAAITYSGGTTYYADSVKGRFTISRDNAKNTVYLQMNSLKPEDTAVYYCNTRSTLGYYWGQGTQVTVSS | high polyreactivity
27 | QVQLVESGGGLVQAGGSLRLICAASGFIFWSNAMGWYRQAPGKEMELVAAITWNGGDTYYADSVKGRFTISRDNAKNTVYLQMNSLKPEDTAVYYCAAVHSRRARYDYWGQGTQVTVSS | low polyreactivity
28 | QVQLVESGGGLVQAGGSLRLSCAASGSTFYYAIGRYRQAPGKERELVASITFSTGSTYYADSVKGRFTISRDNAKNTVYLQLNSLKPEDTAVYYCATGVDTYSLTVEHDSWGQGTQVTVSS | low polyreactivity
29 | QVQLVESGGGLVQAGGSLRLSCAASGRIFYYYDMGWYRQAPGKERELVAAINYSGGSTYYADSVKGRFTISRDNAKNTVYLQMNSLKPEDTAVYYCAADGYYYYSYGTTDQDDYWGQGTQVTVSS | low polyreactivity
30 | QVQHVESGGGLVQAGGSLRLSCDASGSIFRVYAMGWDRQAPGKERELVAAISRDGSTNYADSVKGRFTISRDNAKNTVYLQMNSLKPEDTAVYYCAAYRTYRGARMNYWGQGTQVTVSS | low polyreactivity
31 | QDQRVESGGGLVQAGGSLRLSCAASGRIFSWYAMGWYRQAPGQERELVAAIDSGGRTNYADSVKGRFTISRDNAKNTVYLQMNSLKPEDTAVYYCAKEGYWPRYWERFDYWGQGTQVTVSS | low polyreactivity
32 | QVQLVESGGGLVQAGGSLRLSCAASGFTLYSYAMGWYRQAPGKETELVAAITRSGGITYYADSVKGRFTISRDNAKNTVYLQMNSLKPEDTAVYYCAALYLATGVDKAFDSWGQGTQVTVSS | high polyreactivity
33 | QVQLVVSGGGLVHAGGSLRLSCAASGNTIFYYDLGGYIQAPGKERELVADITSRGTRTYYADSVKGRFTISRDKAKNTVYLQMNSLKPEDTAVYYCNKARGVAYDWGQGTQVTVSS | high polyreactivity
34 | QVQLVESGGGLVQAGGILRLSCAASGSTFYYNTMGWYRQAPGKERELVAAISWSGGSTYYADSVKGRFTISRDNAKTTVYLQINSLKPEDTAVYYSNKLRHISRTLYGYWGQGTQVTVSS | high polyreactivity
35 | QVQLVESGGGLVQAGGSLRLSCAASGLIFGWYAMGWYRQAPGKERELVAAISWSGSRTNYADSVKGRFTISRDNAKNTVYLQMNSLKPEDTAVYYCAAGWGYSASRYGYWGQGTQVTVSS | high polyreactivity
36 | QVQLVESGGGLVQAGGSLRLSCAASGRTFTSYAMGWYRQAPGKERELVAVITRRGGSTSYADSVKGRFTISRDNAKNTVYLQMNSLKPEDTAVYYCAAKRTWPDVKYIRYGYWGQGTQVTVSS | high polyreactivity
37 | QVQLVESGGGLVQAGASLRLSCAASGFIYSFNTMGWYRQAPGKERELVAAITSGGSTNYADSVKGRFTISRDNAKNTVYLQMNSLKPEDTAVYYCNRQYYSYYGNDYWGQGTQVTVSS | high polyreactivity
38 | QVQLVESGGGLVQAGGSLRLSCAASGSTFWDYTMGWYRQAPGKERELVAAINYSDGSTYYADSVKGRFTISRDNAKNTVYLQMNSLKPEDTAVYYCAAGSDPTGRRYDYWGQGTQVTVSS | low polyreactivity
39 | QVQLGESGGGLVLAGGSLRLSCAASGSIFTHYAIGWYRQAPGKERELVAAISWSGGSTYYADSVKGRFTISRDNAQNTVYLQMNSLKPEDTAVYYCAALYYSRLSVSGEYDYWGQGTQVTVSS | high polyreactivity
40 | QDQLVESGGVLVQAGGSLRLSCAASGRIFVYNAMGWYRQAPGKERELVATIDYSGGSTYYADSVKGRFTNSRDYAKNTVYLQINSLKPEDPAVYYCNADWSVYAYDSWGQGTQVTVSS | low polyreactivity
41 | QVQLVESGGGLVQAGGSLRLSCAPSGSTFLDNAMGLYRQAPGKESELVAAISRGGSTNYADSVKWLFTSSRDNAKNTVYLQMNSLKPEDTAVYYCAARVNYASRYWYYIIRGTIDYYWGQGTQVTVSS | low polyreactivity
42 | QVQLVESGGGLVQAGGSLRLSCAASGSTFVSYAMGWYRQAPGKERELVAASSRSGGSTYYADSVKGRFTISRDNAKNTVYLQMNILIPEDTAVYYCAADGRGPSKRNRDYWGQGTQVTVSS | high polyreactivity
43 | QVQLVESGGGLVQAGGSLRLSCAASGLTSNGYDMGWYRQAPGKERELVAGITSGGSPYYADSVKGRFTISRDNAKNTVYLQMNSLKPEDTAVYYCNADVTYYIVWEYDYWGQGTQVTVSS | low polyreactivity
